Reference: patent US12295987B2, “Method of using a GIP/GLP1 co-agonist for diabetes” (Eli Lilly and Company, priority 2018, dated 2025)

Molecular target: T1, human gastric inhibitory peptide receptor (hGIPR) (Homo sapiens, UniProt P48546)
T1 construct: expressed in transfected cells; host or cells: HEK293
T1 sequence (P48546 22-466): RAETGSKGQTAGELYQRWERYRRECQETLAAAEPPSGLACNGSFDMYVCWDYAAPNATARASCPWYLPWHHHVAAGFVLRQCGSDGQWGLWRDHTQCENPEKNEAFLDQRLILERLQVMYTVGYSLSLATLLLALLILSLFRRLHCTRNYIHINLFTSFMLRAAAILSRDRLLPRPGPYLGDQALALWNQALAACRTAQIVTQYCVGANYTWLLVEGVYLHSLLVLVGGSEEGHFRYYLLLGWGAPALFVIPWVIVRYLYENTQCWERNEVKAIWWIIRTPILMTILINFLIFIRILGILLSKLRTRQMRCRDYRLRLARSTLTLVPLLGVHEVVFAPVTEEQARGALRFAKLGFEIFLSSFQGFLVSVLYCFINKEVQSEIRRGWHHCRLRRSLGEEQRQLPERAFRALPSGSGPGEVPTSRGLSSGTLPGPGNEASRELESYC
Assay: cAMP pharmacological functional assay in presence of 0.1% casein, hGIPR
Assay type: cell-based
Conditions: ratio of hGIPR to hGLP1R cAMP EC50 ratios

Compared with “Y-Aib-EGT-αMeF(2F)-TSDASI-αMeL-LD-Orn-K((2-[2-(2-Amino-ethoxy)-ethoxy]-acetyl)2-(γGlu)-CO—(CH2)16—CO2H)AQ-Aib-AFI-(D-Glu)-αMeY-LIEGGPSSGAPPPS-NH2 (YXEGTXTSDASIXLDXKAQXAFIXXLIEGGPSSGAPPPS; Aib, Orn, αMe residues, lipidated Lys, D-Glu, amide; (2)..(2) Xaa at position 2 is Aib; (6)..(6) Xaa at position 6 is alpha-methyl-Phe(2F); (13)..(13) Xaa at position 13 is alpha-methyl-Leu; (16)..(16) Xaa at position 16 is Orn; MOD_RES (17)..(17) Lys at position 17 is chemically modified by conjugation of the epsilon-amino group of the Lys side chain with (2-[2-(2-amino-ethoxy)-ethoxy]-acetyl)2-(gamma-Glu)-CO-(CH2)16- CO2H; (20)..(20) Xaa at positi) [Peptide 246]”, “Y-Aib-EGT-αMeF(2F)-TSD-4Pal-SI-αMeL-LDKK((2-[2-(2-Amino-ethoxy)-ethoxy]-acetyl)-(γGlu)-(2-[2-(2-Amino-ethoxy)-ethoxy]-acetyl)-CO—(CH2)18—CO2H)AQ-Aib-EFI-(D-Glu)-YLIEGGPSSGAPPPS-NH2 (YXEGTXTSDXSIXLDKKAQXEFIXYLIEGGPSSGAPPPS; Aib, αMeF(2F), 4Pal, αMeL, D-Glu; lipidated K; amide; (2)..(2) Xaa at position 2 is Aib; (6)..(6) Xaa at position 6 is alpha-methyl-Phe(2F); (10)..(10) Xaa at position 10 is 4Pal; (13)..(13) Xaa at position 13 is alpha-methyl-Leu; MOD_RES (17)..(17) Lys at position 17 is chemically modified by conjugation of the epsilon-amino group of the Lys side chain with (2-[2-(2-Amino-ethoxy)-ethoxy]-acetyl)-(gamma-Glu)-(2-[2-(2-Amino- ethoxy)-ethoxy]-acetyl)-CO) [Peptide 202]” is higher in “[hGIPR/hGLP1R] EC50 Ratio” value: 2.48 for the first, 6.73 for the second.

First: Y-Aib-EGT-αMeF(2F)-TSDYSILLD-Orn-K((2-[2-(2-Amino-ethoxy)-ethoxy]-acetyl)2-(γGlu)-CO—(CH2)16—CO2H)AQ-Aib-EFI-(D-Glu)-YLIEGGPSSGAPPPS-NH2 (YXEGTXTSDYSILLDXKAQXEFIXYLIEGGPSSGAPPPS; Aib, Orn, αMeF(2F), lipidated Lys, D-Glu, amide; (2)..(2) Xaa at position 2 is Aib; (6)..(6) Xaa at position 6 is alpha-methyl-Phe(2F); (16)..(16) Xaa at position 16 is Orn; MOD_RES (17)..(17) Lys at position 17 is chemically modified by conjugation of the epsilon-amino group of the Lys side chain with (2-[2-(2-amino-ethoxy)-ethoxy]-acetyl)2-(gamma-Glu)-CO-(CH2)16- CO2H; (20)..(20) Xaa at position 20 is Aib; (24)..(24) Xaa at position 24 is D-Gl) [Peptide 248]
Second: Y-Aib-EGT-αMeF-TSDYSILLDKIAQ-Aib-AFIEYLIK((2-[2-(2-Amino-ethoxy)-ethoxy]-acetyl)2-(γGlu)-CO—(CH2)18—CO2H)GG-NH2 (YXEGTXTSDYSILLDKIAQXAFIEYLIKGG; Aib, αMeF; K lipidated C20 diacid-γGlu-AEEA2; C-terminal amide; (2)..(2) Xaa at position 2 is Aib; (6)..(6) Xaa at position 6 is alpha-methyl-Phe; (20)..(20) Xaa at position 20 is Aib; MOD_RES (28)..(28) Lys at position 28 is chemically modified by conjugation of the epsilon-amino group of the Lys side chain with (2-[2-(2-amino-ethoxy)-ethoxy]-acetyl)2-(gamma-Glu)-CO-(CH2)18- CO2H; MOD_RES (30)..(30) Gly at position 30 is amidated) [Peptide 95]
The “[hGIPR/hGLP1R] EC50 Ratio” value of the first is higher: 6.35 for the first, 2.52 for the second.

First: Y-Aib-EGT-αMeF(2F)-TSDYSI-Aib-LDEK((2-[2-(2-Amino-ethoxy)-ethoxy]-acetyl)2-(γGlu)-CO—(CH2)18—CO2H)AQ-Aib-EFI-(D-Glu)-YLIEGGPSSGAPPPS-NH2 (YXEGTXTSDYSIXLDEKAQXEFIXYLIEGGPSSGAPPPS; Aib, αMeF(2F), D-Glu; lipidated K; amide; (2)..(2) Xaa at position 2 is Aib; (6)..(6) Xaa at position 6 is alpha-methyl-Phe(2F); (13)..(13) Xaa at position 13 is Aib; MOD_RES (17)..(17) Lys at position 17 is chemically modified by conjugation of the epsilon-amino group of the Lys side chain with (2-[2-(2-amino-ethoxy)-ethoxy]-acetyl)2-(gamma-Glu)-CO-(CH2)18- CO2H; (20)..(20) Xaa at position 20 is Aib; (24)..(24) Xaa at position 24 is D-Gl) [Peptide 224]
Second: Y-Aib-EGT-αMeF(2F)-TSDLSI-αMeL-LD-Orn-K((2-[2-(2-Amino-ethoxy)-ethoxy]-acetyl)2-(γGlu)-CO—(CH2)16—CO2H)AQ-Aib-AFI-(D-Glu)-αMeY-LIEGGPSSGAPPPS-NH2 (YXEGTXTSDLSIXLDXKAQXAFIXXLIEGGPSSGAPPPS; Aib, Orn, αMe residues, lipidated Lys, D-Glu, amide; (2)..(2) Xaa at position 2 is Aib; (6)..(6) Xaa at position 6 is alpha-methyl-Phe(2F); (13)..(13) Xaa at position 13 is alpha-methyl-Leu; (16)..(16) Xaa at position 16 is Orn; MOD_RES (17)..(17) Lys at position 17 is chemically modified by conjugation of the epsilon-amino group of the Lys side chain with (2-[2-(2-amino-ethoxy)-ethoxy]-acetyl)2-(gamma-Glu)-CO-(CH2)16- CO2H; (20)..(20) Xaa at positi) [Peptide 244]
The “[hGIPR/hGLP1R] EC50 Ratio” value of the first is lower: 3.32 for the first, 6.41 for the second.

Compared with “Y-Aib-EGTFTSDYSI-αMeL-LDKK((2-[2-(2-Amino-ethoxy)-ethoxy]-acetyl)2-(γGlu)-CO—(CH2)18—CO2H)AQ-Aib-AFIEYLIEGGPSSGAPPPS-NH2 (YXEGTFTSDYSIXLDKKAQXAFIEYLIEGGPSSGAPPPS; Aib, αMeL; lipidated K; C-terminal amide; (2)..(2) Xaa at position 2 is Aib; (13)..(13) Xaa at position 13 is alpha-methyl-Leu; MOD_RES (17)..(17) Lys at position 17 is chemically modified by conjugation of the epsilon-amino group of the Lys side chain with (2-[2-(2-amino-ethoxy)-ethoxy]-acetyl)2-(gamma-Glu)-CO-(CH2)18- CO2H; (20)..(20) Xaa at position 20 is Aib; MOD_RES (39)..(39) Ser at position 39 is amidated) [Peptide 20]”, “Y-Aib-EGT-αMeF(2F)-TSDYSI-αMeL-LDEK((2-[2-(2-Amino-ethoxy)-ethoxy]-acetyl)2-(γGlu)-CO—(CH2)16—CO2H)AQ-Aib-EFIEYLIEGG-NH2 (YXEGTXTSDYSIXLDEKAQXEFIEYLIEGG; Aib, αMe residues, C18 diacid lipidation, C-amide; (2)..(2) Xaa at position 2 is Aib; (6)..(6) Xaa at position 6 is alpha-methyl-Phe(2F); (13)..(13) Xaa at position 13 is alpha-methyl-Leu; MOD_RES (17)..(17) Lys at position 17 is chemically modified by conjugation of the epsilon-amino group of the Lys side chain with (2-[2-(2-amino-ethoxy)-ethoxy]-acetyl)2-(gamma-Glu)-CO-(CH2)16- CO2H; (20)..(20) Xaa at position 20 is Aib; MOD_RES (30)..(30) Gly a) [Peptide 104]” is lower in “[hGIPR/hGLP1R] EC50 Ratio” value: 4.87 for the first, 2.66 for the second.
